Test results from the supplement of paper PMC10201428.
± gives the standard deviation of the averaged measurements.

Columns and labels:
[1] = tested on: VchCAST RNA-guided transposition machinery (E. coli BL21(DE3) host, lacZ target); test: relative integration efficiency (T-RL orientation) vs wild-type transposon end (log2 (normalized fold change)); transposon end mutated: left end; higher = more efficient transposition
Outline: (§1)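 Co-transformation of E. coli BL21(DE3) combined a pUC57 mini-transposon donor, holding barcoded pools of 1549 left-end or 1849 right-end variants, with a T7-driven plasmid encoding a CRISPR array, tniQ-cas8-cas7-cas6 and tnsA-tnsB-tnsC. After plating with 0.1 mM IPTG at 37°C for 18 h, input plasmids and genomic integration junctions were PCR-amplified and Illumina-sequenced across two biological output replicates, with four reference barcodes. Relative integration efficiency is the normalised, log-transformed output/input barcode fold change.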

[2] = tested on: VchCAST RNA-guided transposition machinery (E. coli BL21(DE3) host, lacZ target); test: relative integration efficiency (T-LR orientation) vs wild-type transposon end (log2 (normalized fold change)); transposon end mutated: left end; higher = more efficient transposition
Outline: as §1

Row | Sequence | relative integration efficiency (log2) [1] | relative integration efficiency (log2) [2]
1 | AATGTTGTTGATGCAACCATAAAGTGATATTTAATAATTATTTATAATCAGCAACTTAACCACAAAATGTGAATCGAGTATTCAACCATATATTGATATCTCACAAAACAACCATAAGTTGATATTTTTCAGCAAAACTACTGCAGTAAGAA | -4 ± 1.4 | -2.89 ± 0.26
2 | AATGTTGTTGATGCAACCATAAAGTGATATTTAATAATTATTTATAATCAGCAACTTAACCACAAAATGTGAATCGAGTATTTCAGCAAAACCAACCATATATTGATATCTCACAAAACAACCATAAGTTGATATTTTTACTGCAGTAAGAA | -4.28 ± 1 | -3.73 ± 1.1
3 | AATGTTGTTGATGCAACCATAAAGTGATATTTAATAATTATTTATAATCAGCAACTTAACCACAAAATGTGAATCGAGTATTTCAGCAAAACTACTGCAGTAAGAATCAACCATATATTGATATCTCACAAAACAACCATAAGTTGATATTT | -5.36 ± 1.6 | -5.03 ± 3.6
4 | AATGTTGTTGATGCAACCATAAAGTGATATTTAATAATTATTTATAATCAGCAACTTAACCACAAAATGTGAATCGAGTATTTCAGCAAAACTACTGCAGTACAACCATATATTGATATCTCACAAAACAACCATAAGTTGATATTTTAGAA | -6.01 ± 0.9 | -3.82 ± 1.3
5 | AATGTTGTTGATGCAACCATAAAGTGATATTTAATAATTATTTATAATCAGCAACTTAACCACAAAATGTGACAACCATATATTGATATCTCACAAAACAACCATAAGTTGATATTTTATCGAGTATTTCAGCAAAACTACTGCAGTAAGAA | -4.95 ± 0.52 | -4.36 ± 1.1
6 | AATGTTGTTGATGCAACCATAAAGTGATATTTAATAATTATTTATAATCAGCAACTTAACCACAAACAACCATATATTGATATCTCAACAAAACAACCATAAGTTGATATTTTTGTGAATCGAGTATTTCAGCAAAACTACTGCAGTAAGAA | -1.37 ± 0.49 | -1.17 ± 1.5
7 | AATGTTGTTGATGCAACCATAAAGTGATATTTAATAATTATTTATAATCAGCAACTTAACCACAAACAACCATATATTGATATCTCACAAAACAACCATAAGTTGATATTTTATGTGAATCGAGTATTTCAGCAAAACTACTGCAGTAAGAA | -0.754 ± 0.26 | -1.02 ± 0.3
8 | AATGTTGTTGATGCAACCATAAAGTGATATTTAATAATTATTTATAATCAGCAACTTAACCACAAACAACCATATATTGATATCTCACAAAACAACCATAAGTTGATATTTTTGTGAATCGAGTATTTCAGCAAAACTACTGCAGTAAGAAA | -0.248 ± 0.24 | -0.356 ± 0.049
9 | AATGTTGTTGATGCAACCATAAAGTGATATTTAATAATTATTTATAATCAGCAACTTAACCACAACAACCATATATTGATATCTCACAAAACAACCATAAGTTGATATTTTTGTGAATCGAGTATTTCAGCAAAACTACTGCAGTAAGAAAG | -2.31 ± 0.76 | -2.53 ± 1.4
10 | AATGTTGTTGATGCAACCATAAAGTGATATTTAATAATTATTTATAATCAGCAACTTAACCACAACCACCAACGCGCGGTCGCGAGACACCCCACCAACGCCTGGTCGCGGGGGTGTCCGATCTGATTTCAGCAAAACTACTGCAGTAAGAA | -5.83 ± 1.9 | -4.35 ± 3.3
11 | AATGTTGTTGATGCAACCATAAAGTGATATTTAATAATTATTTATAATCAGCAACTTAACCACAACCATATATTGATATCTCACAAAACAACCATAAGTTGATATTTTCAAAATGTGAATCGAGTATTTCAGCAAAACTACTGCAGTAAGAA | -5.07 ± 0.94 | -2.53 ± 1.4
12 | AATGTTGTTGATGCAACCATAAAGTGATATTTAATAATTATTTATAATCAGCAACTTAACCACAACCATATATTGATATCTCCAAAAACAAAACAACCATAAGTTGATATTTTTGTGAATCGAGTATTTCAGCAAAACTACTGCAGTAAGAA | -3.07 ± 1 | -2.36 ± 0.59
13 | AATGTTGTTGATGCAACCATAAAGTGATATTTAATAATTATTTATAATCAGCAACTTAACCACACAACCATATATTGATATCTCAAAACAAAACAACCATAAGTTGATATTTTTGTGAATCGAGTATTTCAGCAAAACTACTGCAGTAAGAA | -2.19 ± 0.45 | -3.44 ± 2.9
14 | AATGTTGTTGATGCAACCATAAAGTGATATTTAATAATTATTTATAATCAGCAACTTAACCACACAACCATATATTGATATCTCACAAAACAACCATAAGTTGATATTTTTGTGAATCGAGTATTTCAGCAAAACTACTGCAGTAAGAAAGT | -4.27 ± 1.1 | -2.81 ± 1.1
15 | AATGTTGTTGATGCAACCATAAAGTGATATTTAATAATTATTTATAATCAGCAACTTAACCACACCCACCAACGCGCGGTCGCGAGACACCCCACCAACGCCTGGTCGCGGGGGTGTCCGATCTGATTTCAGCAAAACTACTGCAGTAAGAA | -6.25 ± 1.4 | -3.59 ± 0.93
16 | AATGTTGTTGATGCAACCATAAAGTGATATTTAATAATTATTTATAATCAGCAACTTACAACCATATATTGATATCTCACAAAACAACCATAAGTTGATATTTTACCACAAAATGTGAATCGAGTATTTCAGCAAAACTACTGCAGTAAGAA | -1 ± 0.61 | -1.12 ± 1.1
